Assay results taken from US20230174659A1 (GENERAL HOSPITAL, published 2023).

How the values were obtained:
[1] = biological target: T1, Amino acid residues 106-125 of human TNFR2 (human); assay: ELISA on plate-coated linear peptide S04073; Affinity cell of this row is '2+-'
T1 sequence (peptide): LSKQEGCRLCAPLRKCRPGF

[2] = biological target: T2, Amino acid residues 114-133 of human TNFR2 (human); assay: ELISA, immobilised TNFR2 peptide fragments, TNFRAG1 as primary antibody
T2 peptide: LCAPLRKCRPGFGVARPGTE
Description: (§1) The binding of antibody to each of the synthesized peptides was tested in an ELISA format. Surface-immobilized peptide arrays were incubated with primary antibody solution (overnight at 4° C.). After washing, the peptide arrays were incubated with a 1/1000 dilution of an appropriate antibody peroxidase conjugate (SBA) for one hour at 25° C. After washing, the peroxidase substrate 2,2′-azino-di-3- ethylbenzthiazoline sulfonate (ABTS) and 2 µl/ml of 3 percent H₂O₂ were added. After one hour, the color development was measured. The color development was quantified with a charge coupled device (CCD) - camera and an image processing system. The values obtained from the CCD camera range from 0 to 3000 mAU, similar to a standard 96-well plate ELISA-reader.
(§2) Affinity is reported qualitatively using a categorical four-point scale, such that an affinity score of “0” denotes lowest affinity and an affinity score of “4” denotes highest affinity.

[3] = biological target: T3, Amino acid residues 130-149 of human TNFR2 (human); assay: as above
T3 peptide: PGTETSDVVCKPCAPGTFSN
Description: as §1, §2

[4] = biological target: T4, Amino acid residues 50-69 of human TNFR2 (human); assay: as above
T4 peptide: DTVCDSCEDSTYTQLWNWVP
Description: as §1, §2

[5] = biological target: T5, Amino acid residues 162-181 of human TNFR2 (human); assay: as above
T5 peptide: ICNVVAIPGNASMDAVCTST
Description: as §1, §2

[6] = biological target: T6, Amino acid residues 42-61 of human TNFR2 (human); assay: as above
T6 peptide: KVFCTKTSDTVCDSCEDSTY
Description: as §1, §2

[7] = biological target: T7, Amino acid residues 138-157 of human TNFR2 (human); assay: as above
T7 peptide: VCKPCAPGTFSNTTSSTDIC
Description: as §1, §2

[8] = biological target: T8, Amino acid residues 90-109 of human TNFR2 (human); assay: as above
T8 peptide: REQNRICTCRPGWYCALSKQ
Description: as §1, §2

[9] = biological target: T9, Amino acid residues 170-189 of human TNFR2 (human); assay: as above
T9 peptide: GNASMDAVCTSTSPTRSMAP
Description: as §1, §2

[10] = biological target: T10, Amino acid residues 9-28 of human TNFR2 (human); assay: as above
T10 peptide: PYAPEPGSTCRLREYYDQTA
Description: as §1, §2

[11] = biological target: T11, Amino acid residues 17-36 of human TNFR2 (human); assay: as above
T11 peptide: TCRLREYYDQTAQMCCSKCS
Description: as §1, §2

[12] = biological target: T12, Amino acid residues 146-165 of human TNFR2 (human); assay: as above
T12 peptide: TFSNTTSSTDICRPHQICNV
Description: as §1, §2

[13] = biological target: T13, Amino acid residues 1-20 of human TNFR2 (human); assay: as above
T13 peptide: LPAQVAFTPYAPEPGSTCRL
Description: as §1, §2

[14] = biological target: T14, Amino acid residues 58-77 of human TNFR2 (human); assay: as above
T14 peptide: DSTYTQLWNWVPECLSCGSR
Description: as §1, §2

[15] = biological target: T15, Amino acid residues 154-174 of human TNFR2 (human); assay: as above
T15 construct: The printed range 154-174 spans 21 residues, but the printed peptide has 20
T15 peptide: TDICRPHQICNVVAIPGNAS
Description: as §1, §2

[16] = biological target: T16, Amino acid residues 122-141 of human TNFR2 (human); assay: as above
T16 peptide: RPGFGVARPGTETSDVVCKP
Description: as §1, §2

[17] = biological target: T1, Amino acid residues 106-125 of human TNFR2 (human); assay: as above
[18] = biological target: T17, Amino acid residues 98-117 of human TNFR2 (human); assay: as above
T17 sequence (peptide): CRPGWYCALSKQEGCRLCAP

[19] = biological target: T18, Amino acid residues 108-127 of human TNFR2 (human); assay: as above
T18 sequence (peptide): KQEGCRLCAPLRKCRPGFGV

[20] = biological target: T19, Amino acid residues 26-45 of human TNFR2 (human); assay: as above
T19 sequence (peptide): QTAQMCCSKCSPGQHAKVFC

[21] = biological target: T20, Amino acid residues 66-85 of human TNFR2 (human); assay: as above
T20 sequence (peptide): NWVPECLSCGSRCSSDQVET

[22] = biological target: T21, Amino acid residues 82-101 of human TNFR2 (human); assay: as above
T21 sequence (peptide): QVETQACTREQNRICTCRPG

[23] = biological target: T22, Amino acid residues 74-93 of human TNFR2 (human); assay: as above
T22 sequence (peptide): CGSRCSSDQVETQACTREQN

[24] = biological target: T23, Amino acid residues 34-53 of human TNFR2 (human); assay: as above
T23 sequence (peptide): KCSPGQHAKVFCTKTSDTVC

[25] = biological target: T4, Amino acid residues 50-69 of human TNFR2; assay: ELISA on TNFR2 peptide, antibody alone
Description: (§3) ELISA was also used to determine linear epitopes present on the extracellular surface of TNFR2. Linear peptides corresponding to various regions within the TNFR2 primary sequence were purchased from GenScript (Piscataway, NJ), diluted in coating buffer and placed on Immulon 4HBX Flat Bottom Microtiter Plates (Thermo Scientific) at a concentration of 1 µg/well. Primary TNFR2 agonistic antibodies (0.1 µg/well) were incubated with substrates. Secondary antibodies against rodent IgG were used to detect the primary antibodies. Absorbance was measured using the SPECTRAMAX^{®} 190 Absorbance Plate Reader and analyzed with SoftMax Pro 6.3 (Molecular Devices).

[26] = biological target: T6, Amino acid residues 42-61 of human TNFR2; assay: ELISA on TNFR2 peptide, antibody alone
Description: as §3

[27] = biological target: T9, Amino acid residues 170-189 of human …; assay: ELISA on TNFR2 peptide, antibody alone
Description: as §3

[28] = biological target: T10, Amino acid residues 9-28 of human TNFR2; assay: ELISA on TNFR2 peptide, antibody alone
Description: as §3

[29] = biological target: T11, Amino acid residues 17-36 of human TNFR2; assay: ELISA on TNFR2 peptide, antibody alone
Description: as §3

[30] = biological target: T14, Amino acid residues 58-77 of human TNFR2; assay: ELISA on TNFR2 peptide, antibody alone
Description: as §3

[31] = biological target: T16, Amino acid residues 122-141 of human …; assay: ELISA on plate-coated linear peptide S04075
Description: as §3

[32] = biological target: T7, Amino acid residues 138-157 of human …; assay: ELISA on plate-coated linear peptide S04077
Description: as §3

[33] = biological target: T17, Amino acid residues 98-117 of human TNFR2 (human); assay: ELISA on plate-coated linear peptide S04072
[34] = biological target: T1, Amino acid residues 106-125 of human TNFR2 (human); assay: ELISA on plate-coated linear peptide S04073
[35] = biological target: T19, Amino acid residues 26-45 of human TNFR2 (human); assay: ELISA on plate-coated linear peptide S03933; Affinity cell of this row is '1+'
[36] = biological target: T3, Amino acid residues 130-149 of human …; assay: ELISA on plate-coated linear peptide S04076
Description: as §3

[37] = biological target: T12, Amino acid residues 146-165 of human …; assay: ELISA on plate-coated linear peptide S04078
Description: as §3

[38] = biological target: T2, Amino acid residues 114-133 of human …; assay: ELISA on plate-coated linear peptide S04074
Description: as §3

[39] = biological target: T19, Amino acid residues 26-45 of human TNFR2 (human); assay: ELISA on plate-coated linear peptide S03933
[40] = biological target: Full-length human TNFR2 (human) (UniProt P20333); assay: ELISA, immobilised human TNFR2 / TNFR2 peptide fragments, TNFRAG1 as primary antibody
[41] = biological target: T15, Amino acid residues 154-174 of human …; assay: ELISA on plate-coated linear peptide S04079
Description: as §3

[42] = biological target: T13, Amino acid residues 1-20 of human TNFR2; assay: ELISA on plate-coated linear peptide S04062
Description: as §3

[43] = biological target: T5, Amino acid residues 162-181 of human …; assay: ELISA on plate-coated linear peptide S04080
Description: as §3

[44] = biological target: T17, Amino acid residues 98-117 of human TNFR2 (human); assay: ELISA on TNFR2 peptide, antibody alone
[45] = biological target: T19, Amino acid residues 26-45 of human TNFR2 (human); assay: ELISA on TNFR2 peptide, antibody alone
[46] = biological target: T23, Amino acid residues 34-53 of human TNFR2 (human); assay: ELISA on TNFR2 peptide, antibody alone
[47] = biological target: T17, Amino acid residues 98-117 of human TNFR2 (human); assay: ELISA on plate-coated linear peptide S04072; Affinity cell of this row is '1+'
[48] = biological target: T18, Amino acid residues 108-127 of human TNFR2 (human); assay: ELISA on plate-coated linear peptide S03935; Affinity cell of this row is '2+-'
[49] = biological target: T18, Amino acid residues 108-127 of human TNFR2 (human); assay: ELISA on plate-coated linear peptide S03935
[50] = biological target: T1, Amino acid residues 106-125 of human TNFR2 (human); assay: ELISA on TNFR2 peptide, antibody alone; Affinity cell of this row is '-'
[51] = biological target: T20, Amino acid residues 66-85 of human TNFR2 (human); assay: as above
[52] = biological target: T21, Amino acid residues 82-101 of human TNFR2 (human); assay: as above
[53] = biological target: T22, Amino acid residues 74-93 of human TNFR2 (human); assay: as above

Reading [1]: 0 | Affinity Score [2]: 0 affinity score (0 lowest to 4 highest) | Affinity Score [3]: 0 affinity score (0 lowest to 4 highest) | Affinity Score [4]: 0 affinity score (0 lowest to 4 highest) | Affinity Score [5]: 0 affinity score (0 lowest to 4 highest) | Affinity Score [6]: 0 affinity score (0 lowest to 4 highest) | Affinity Score [7]: 0 affinity score (0 lowest to 4 highest) | Affinity Score [8]: 2 affinity score (0 lowest to 4 highest) | Affinity Score [9]: 0 affinity score (0 lowest to 4 highest) | Affinity Score [10]: 0 affinity score (0 lowest to 4 highest) | Affinity Score [11]: 0 affinity score (0 lowest to 4 highest) | Affinity Score [12]: 0 affinity score (0 lowest to 4 highest) | Affinity Score [13]: 0 affinity score (0 lowest to 4 highest) | Affinity Score [14]: 0 affinity score (0 lowest to 4 highest) | Affinity Score [15]: 0 affinity score (0 lowest to 4 highest) | Affinity Score [16]: 0 affinity score (0 lowest to 4 highest) | Affinity Score (affinity score (0 lowest to 4 highest)) [17]: 2 | Affinity Score (affinity score (0 lowest to 4 highest)) [18]: 1 | Affinity Score (affinity score (0 lowest to 4 highest)) [19]: 2 | Affinity Score (affinity score (0 lowest to 4 highest)) [20]: 1 | Affinity Score (affinity score (0 lowest to 4 highest)) [21]: 0 | Affinity Score (affinity score (0 lowest to 4 highest)) [22]: 0 | Affinity Score (affinity score (0 lowest to 4 highest)) [23]: 0 | Affinity Score (affinity score (0 lowest to 4 highest)) [24]: 0 | binding result [25]: no binding | binding result [26]: no binding | binding result [27]: no binding | binding result [28]: no binding | binding result [29]: no binding | binding result [30]: no binding | binding result [31]: no binding | binding result [32]: no binding | Affinity [33]: 1 | Affinity [34]: 2 | Reading [35]: 0 | binding result [36]: no binding | binding result [37]: no binding | binding result [38]: no binding | Affinity [39]: 1 | Affinity Score (affinity score (0 lowest to 4 highest)) [40]: 4 | binding result [41]: no binding | binding result [42]: no binding | binding result [43]: no binding | Affinity [44]: 1 | Reading [44]: 2 | Affinity [45]: 1 | Reading [45]: 0.1 | Affinity [46]: 1 | Reading [47]: 0 | Reading [48]: 0 | Affinity [49]: 2 | Reading [50]: 2 | Reading [51]: 2 | Reading [52]: 2 | Reading [53]: 2
B1: agonistic TNFR2 antibody TNFRAG1 (antibody, V domains shown)
VH: EVQLQQFGAELVKPGASVKISCKASGYTFTDYNIDWVKQSHGKSLEWIGDINPNYDSTSYSQKFRGKATLTVDKSSSTAYMELRSLTSEDTAVYYCARGNSWYFDVWGAGTTVTVSS
VL: QIVLTQSPALMSASPGEKVTMTCSASSSVRYMYWYQQKPRSSPKPWIYLTSNLASGVPARFSGSGSGTSYSLTISSMEAEDAATYYCQQWSSNPLTFGAGTKLELK
notes: It was detected with secondary antibodies against rodent IgG; also called monoclonal TNFR2 antibody TNFRAG1; TNFR2 agonist antibody
